Substitutions are numbered along the chain they refer to.

As a reminder, the Kd is the equilibrium constant for the complex coming apart. What is called EC50 (read off the curve) is the concentration needed to bring the measured effect to its halfway point. Read a high EC50 (read off the curve) as lower potency in that assay. In general, EC50 refers to the midpoint of the concentration-response curve. A lower EC50 goes with a more potent agent.

For test [1], the target named is T1, Human PD-L2-Fc (Homo sapiens, UniProt Q9BQ51).
T1 construct: Antigen in Octet IgG KD Human PD-L2-Fc (M) Avid
T1 sequence (PD-L2-Fc fusion chain, looked up): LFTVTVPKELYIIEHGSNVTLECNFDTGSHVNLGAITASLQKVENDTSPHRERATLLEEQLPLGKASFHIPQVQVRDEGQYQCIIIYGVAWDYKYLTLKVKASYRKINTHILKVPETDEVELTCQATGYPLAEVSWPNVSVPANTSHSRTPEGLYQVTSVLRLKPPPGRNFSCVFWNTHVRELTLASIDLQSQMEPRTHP
In words: Octet, column hPD-L2 dimer; unit Molar from the legend. On the technique in general: BLI is a label-free optical method that tracks binding on a fibre tip over time.

In test [2] the target is T2, Human PD-L1-Fc (Homo sapiens, UniProt Q9NZQ7).
T2 construct: Antigen in Octet IgG KD Human PD-L1-Fc (M) Avid
T2 sequence (Q9NZQ7 19-239 limits assumed): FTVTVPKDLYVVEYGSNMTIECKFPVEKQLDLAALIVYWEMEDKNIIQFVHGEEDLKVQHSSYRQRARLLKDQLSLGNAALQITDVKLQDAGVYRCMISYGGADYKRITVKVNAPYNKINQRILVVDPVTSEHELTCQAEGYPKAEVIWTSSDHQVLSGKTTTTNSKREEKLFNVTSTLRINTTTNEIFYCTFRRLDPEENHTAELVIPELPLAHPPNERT
Description: Octet, IgG KD, avid format, human PD-L1-Fc.

The target in test [3] is T2, Human PD-L1-Fc. Description: Octet, column hPD-L1 dimer; unit Molar from the legend.
The target in test [4] is T1, Human PD-L2-Fc. In words: Octet, IgG KD, avid format, human PD-L2-Fc.
Test [5] addresses T3, mPD-L2 dimer (Mus musculus, UniProt Q9WUL5).
T3 construct: also called mouse PD-L2 protein
T3 sequence (PD-L2 chain, looked up): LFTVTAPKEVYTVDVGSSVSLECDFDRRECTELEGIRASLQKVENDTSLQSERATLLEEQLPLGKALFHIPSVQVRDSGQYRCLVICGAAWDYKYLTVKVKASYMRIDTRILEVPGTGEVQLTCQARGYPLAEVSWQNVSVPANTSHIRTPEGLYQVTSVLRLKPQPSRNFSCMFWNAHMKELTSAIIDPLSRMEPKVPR
Description: Octet, column mPD-L2 dimer; unit Molar from the legend.
Description: (§1) Antibody Characterization. Antibody candidates generated from yeast-surface display screening were tested for the capacity to bind to PD-L1 or PD-L2.

Test [6] concerns the target T4, human PD-L2 protein (monomeric, soluble analyte) (human, UniProt Q9BQ51 20-220).
T4 construct: Recombinant human PD-L2 protein used as analyte on Octet or Biacore; a soluble form would lack the transmembrane part; also called monomeric PD-L2; monomeric human ligand
T4 sequence: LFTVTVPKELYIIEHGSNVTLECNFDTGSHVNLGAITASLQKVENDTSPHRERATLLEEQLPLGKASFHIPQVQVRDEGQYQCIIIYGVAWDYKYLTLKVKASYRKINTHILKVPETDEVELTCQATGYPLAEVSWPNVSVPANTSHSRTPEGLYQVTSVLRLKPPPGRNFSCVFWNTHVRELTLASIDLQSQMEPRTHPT
Description: Octet, monomeric human ligand.

For test [7], the target named is T5, human PD-L1 protein (monomeric, soluble analyte) (human, UniProt Q9NZQ7 19-238).
T5 construct: Recombinant human PD-L1 protein used as analyte on Octet or Biacore; also called monomeric PD-L1; monomeric human ligand
T5 sequence (Q9NZQ7 19-238 limits assumed): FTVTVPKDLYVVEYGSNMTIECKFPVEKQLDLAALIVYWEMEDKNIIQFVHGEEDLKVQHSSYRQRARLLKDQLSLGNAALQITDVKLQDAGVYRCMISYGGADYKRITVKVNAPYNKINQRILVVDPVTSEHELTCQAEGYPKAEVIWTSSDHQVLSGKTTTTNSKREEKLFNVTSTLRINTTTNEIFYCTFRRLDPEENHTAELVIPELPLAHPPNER
Description: Octet, monomeric human ligand.

The target in test [8] is T6, human PD-L2 (PDCD1LG2) expressed on cells (human, UniProt Q9BQ51 20-273).
T6 sequence: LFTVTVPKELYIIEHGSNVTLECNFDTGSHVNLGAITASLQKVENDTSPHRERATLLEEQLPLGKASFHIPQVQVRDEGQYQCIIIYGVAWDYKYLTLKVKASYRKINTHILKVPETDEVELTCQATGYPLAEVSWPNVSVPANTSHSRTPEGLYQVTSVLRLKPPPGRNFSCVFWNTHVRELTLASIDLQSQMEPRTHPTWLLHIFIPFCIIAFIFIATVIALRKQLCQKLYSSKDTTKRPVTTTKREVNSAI
Description: cell-based or functional assay.

Test [9] concerns the target T7, Human INSR BioVendor (Homo sapiens, UniProt P06213-2).
T7 construct: recombinant soluble protein used in Octet, monovalent format; Antigen of the column Octet IgG KD Human INSR BioVendor (M) Monovalent
In words: Octet, IgG KD, monovalent format, human INSR BioVendor.

The target of test [10] is T8, INSR isoform long, over-expressed on HEK293 cells (human, UniProt P06213 28-1382).
T8 construct: whole, on cells; Long isoform of the UniProt entry; also called INSR long isoform
Description: flow cytometry on live transfected HEK293 cells, dose range 0-300 µg/mL. (A flow cytometer gives signals particle by particle.)
Description: (§2) Human HEK293 cells were transfected with expression vectors encoding ZsGreen1 only, or ZsGreen1 and CD274 (PD-L1), PDCD1LG2 (PD-L2), INSR isoform long, INSR Isoform short or CD20 (assay control). […] Cells were washed, and incubated with the same AF647 anti-human IgG Fc detection antibody as used in the cell microarray screens. Cells were again washed, and analyzed by flow cytometry using an Accuri flow cytometer (BD). A 7AAD live/dead dye was used to exclude dead cells in the analysis, and ZsGreen+ (transfected) cells were selected for analysis.
(§3) Interactions were then investigated by flow cytometry.

Test [11] addresses T6, human PD-L2 (PDCD1LG2) expressed on …. The test is described as above.
Description: as §2, §3
The target in test [12] is T9, human PD-L1 (CD274) expressed on cells (human, UniProt Q9NZQ7 19-290).
T9 construct: also called CD274 (PD-L1); PD-L1 CHO cells
T9 sequence (Q9NZQ7 19-290 limits assumed): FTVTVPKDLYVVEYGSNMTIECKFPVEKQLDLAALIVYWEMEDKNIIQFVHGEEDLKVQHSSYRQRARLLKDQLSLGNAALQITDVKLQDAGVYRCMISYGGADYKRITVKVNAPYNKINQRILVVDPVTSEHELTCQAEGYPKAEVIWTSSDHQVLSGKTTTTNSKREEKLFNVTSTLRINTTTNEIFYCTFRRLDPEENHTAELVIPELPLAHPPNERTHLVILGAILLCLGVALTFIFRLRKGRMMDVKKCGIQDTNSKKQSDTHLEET
The description is as above.
Description: as §2, §3

Test [13] deals with T4, human PD-L2 protein (monomeric, soluble …). In words: Biacore, IgG KD, monovalent format, human PD-L2-His. (In general: In SPR one partner is held on a chip, and binding of the other changes the refractive index at the surface.)
The target in test [14] is T5, human PD-L1 protein (monomeric, soluble …). Description: Biacore, IgG KD, monovalent format, human PD-L1-His.
For test [15], the target named is T9, human PD-L1 (CD274) expressed on cells. Description: cell-based or functional assay.
For test [16], the target named is T10, mPD-L1 dimer (Mus musculus, UniProt Q9EP73).
T10 construct: also called mouse PD-L1 protein
T10 sequence (Q9EP73 19-238 limits assumed): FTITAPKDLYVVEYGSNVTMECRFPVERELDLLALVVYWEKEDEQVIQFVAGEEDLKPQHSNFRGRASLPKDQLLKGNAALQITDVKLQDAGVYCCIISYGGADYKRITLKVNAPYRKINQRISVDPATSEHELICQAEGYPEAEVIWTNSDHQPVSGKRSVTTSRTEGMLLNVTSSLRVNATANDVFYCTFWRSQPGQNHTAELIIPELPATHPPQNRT
Description: Octet, column mPD-L1 dimer; unit Molar from the legend.
Description: as §1

Test [17] concerns the target T5, human PD-L1 protein (monomeric, soluble …). Description: Octet, IgG KD, monovalent format, human PD-L1-His.
The target in test [18] is T4, human PD-L2 protein (monomeric, soluble …). In words: Octet, IgG KD, monovalent format, human PD-L2-His.

B1: ADI-38002 (antibody, human IgG1, kappa, V domains shown)
VH: QVQLQQWGAGLLKPSETLSLTCAVYGGSLSGYPWSWIRQPPGKGLEWIGETDVSGWTDYNPSLKSRVTISVDTSKNQFSLKLSSVTAADTAVYYCARDGRRMGTPSFDIWGQGTMVTVSS
VL: DIQMTQSPSSVSASVGDRVTITCRASQDINSFLAWYQQKPGKAPKLLIYAASSLNSGVPSRFSGSGSGTDFTLTISSLQPEDFATYYCQKSVYFPPTFGGGTKVEIKR
notes: Human IgG1 (GASDIE); Some in vivo work used a mouse IgG2a form; also called Ab-38002; test antibody 38002
As to B1, the Kd turned out to be 0.601 nM in [1]; 1.28 nM in [2]; 1.28 nM in test [3]; 0.601 nM in test [4]; 0.7 nM in test [5]; 1.9 nM in [6]. The dissociation constant Kd in test [7] worked out at 7.62 nM; in test [13], 0.727 nM; in [14], 3.76 nM; in test [16], 3.2 nM. Further, the figures for the “EC50 (read off the curve)” value in [8] and in test [15] were around 0.5 nM and around 1 nM, respectively. The binding result in test [9] was “no binding”. The concentration for a half-maximal effect (EC50) stood at 145 µg/mL in test [10], 0.1 µg/mL in test [11] and 0.03 µg/mL in [12].

B2: ADI-38004 (antibody, V domains shown)
VH: B1 VH
VL: B1 VL with D28G, N30S, K90S, S91A
As to B2, the equilibrium dissociation constant (Kd) in test [17] worked out at 20 nM; in test [2], 1.22 nM; in [4], 0.597 nM; in test [13], 1.24 nM; in test [14] it was 37.7 nM; in [18], 2.84 nM.

B3: ADI-38003 (antibody, V domains shown)
VH: B1 VH
VL: B1 VL with Q27K, D28G, N30S, S91A
Turning to B3, the Kd was 14.2 nM in test [17]; 1.27 nM in [2]; 0.377 nM in [4]; 0.175 nM in [13]; 8.09 nM in [14]; 1.02 nM in test [18].

B4: ADI-37464 (antibody, V domains shown)
VH: B1 VH
VL: B1 VL with D28G, S91A
Consider B4, for which the Kd came to 6.23 nM in [17]; 1.52 nM in test [2]; 0.426 nM in [4]; 0.508 nM in test [13]; 2.76 nM in test [14]; 1.6 nM in [18].

Values taken from US20260234285A1 (University of Texas, published 2026).
